Measured values as given in US20090081724A1 (BIONOMICS, published 2009).

Target: AD-CaM (Calmodulin, encoded by the CALM2 gene, fused to the activation domain) (human, UniProt P0DP24 1-149)
Assay: yeast two-hybrid, HIS3 and LacZ reporters

B1: DB-Q2C R353G mutant (other, not shown: small tags and cut ends)
chain: KVQEQHRQKHFEKRRNPAAGLIQSAWRFYATNLSGTDLHSTWQYYERTVTVPMYSSQTQTYGASRLIPPLNQLELLRNLKSKSGLAFRKDPPPEPSPSQKVSLKDRVFSSPRGVAAKGKGSPQAQTVRRSPSADQSLEDSPSKVPKSWSFGDRSRARQAFRIKGAASRQNSEEASLPGEDIVDDKSCPCEFVTEDLTPGLKVSIRAVCVMRFLVSKRKFKESLRPYDVMDVIEQYSAGHLDMLSRIKSLQSRVDQIVGRGPAITDKDRTKGPAEAELPEDPSMMGRLGKVEKQVLSMEKKLDFLVNIYMQRMGIPPTETEAYFGAKEPEPAPPYHSPEDSREHVDRHGCIVKIVRSSSSTGQKNFSAPPAAPPVQCPPSTSWQPQSHPRQGHGTSPVGDHGSLVRIPPPPAHERSLSAYGGGNRASMEFLRQEDTPGCRPPEGTLRDSDTSISIPSVDHEELERSFSGFSISQSKENLDALNSCYAAVAPCAKVRPYIAEGESDTDSDLCTPCGPPPRSATGEGPFGDVGWAGPRK
notes: Only the intracellular C-terminal region stood in the bait, made with the same primers as the wt construct; also called R353G KCNQ2 mutant
B1: no binding.
